Measured values as given in a protein production outcome set (Wang et al. 2014).

Experiment: label from the status in PepcDB records

Sequence | protein production
MGLLSDPVRRRALARLVLRLNAPLCVLSYVAGIAWFLALVFPPLTQRTYMSENAMGSTMVEEQFAGGDRARAFARDFAAHRKKSGALPVAWLERTMRSVGLEVYTQSFSRKLPFPDETHERYMVSGTNVYGILRAPRAASTESLVLTVPCGSDSTNSQAVGLLLALAAHFRGQIYWAKDIVFLVTEHDLLGTEAWLEAYHDVNVTGMQSSPLQGRAGAIQAAVALELSSDVVTSLDVAVEGLNGQLPNLDLLNLFQTFCQKGGLLCTLQGKLQPEDWTSLDGPLQGLQTLLLMVLRQASGRPHGSHGLFLRYRVEALTLRGINSFRQYKYDLVAVGKALEGMFRKLNHLLERLHQSFFLYLLPGLSRFVSIGLYMPAVGFLLLVLGLKALELWMQLHEAGMGLEEPGGAPGPSVPLPPSQGVGLASLVAPLLISQAMGLALYVLPVLGQHVATQHFPVAEAEAVVLTLLAIYAAGLALPHNTHRVVSTQAPDRGWMALKLVALIYLALQLGCIALTNFSLGFLLATTMVPTAALAKPHGPRTLYAALLVLTSPAATLLGSLFLWRELQEAPLSLAEGWQLFLAALAQGVLEHHTYGALLFPLLSLGLYPCWLLFWNVLFWK | failed
MRYRRAARPVATVLIHAMQTYPLVFHASPDQTIAWRDGAPVAVRTFLAEVAQLAAALPAGAHVFNACTDRYRFTVGLCATLVAGKISLLPASQTPETVRRLAAFAPDVFCLHDAPDCAIALPRFRFPEPLPPAGADAPVDVPQIDASRVMAYIFTSGSTGTPVPHRKTWGALVEGVRASAARLGLLDAHACTLVGTVPPQHMYGFESTVLLALVGGLAFSNRLPFYPADIRAALEAVPQPRVLVTSPIHLRALLSSERALPPAALVLSATAALPEPLASEAEARLAAPLIEIYGSTETGQIATRRTAQGATWHLQPGIRLEARAGTPDEDGPVTWASGAHLDAPVPMGDTLELIDDTHFLLHGRKADLINVAGKRTSLAYLNHQLNAIPGVEDGVFFMPSAADNGSEPPARLAALVVAPELAAADLLHALRERIDPAFLPRPLLLVEALPRDATGKLPRDALAALIAQHGHRGARAGAPAPITFTIPADHPALPGHFPGHPIVPGVVLLDQAIRRIGAALNRPFDACRLSSAKFLSPAAPGVPLALAFEATASGAIRFTVSAGEREVASGVLAQQEAARP | failed
MKKNKLTTLALILPITILTPIVIASCTNKTKVKKSSSLDKIASNLKLEYFNNKANTKASSVQKDEIKKPLNLPNDVVFSVKDVFVSHKDQSVLIVKYTLKKGNEIQEYTYEIKGFKSVYEKDKIVNDLSQANEDFKKIVNNIRLKDTFDFKLAAFPNQNYDQLLPSQIYKNYYQGIEIQQHKYQNELDIKIINFLYPDGDFGSANKNGTLKLSLMLTDKKNNQVYYKLLEVSGFKSNPYGVDENGTIPGIGTERLKPKNQDDYFSKTQLQRYEIDNEGYLQILKRQNNDKNWKELRPDLNATVSDIKHFDEKAKNVGQDSYESAAYKGFTLPVYESDGKISGLALAGKDTPKGPSWVDAIGRNQWQIGGLPRTLPNEKYRQEAMQTFSLGILNNDSHKNNTYNKTAGTTWILDYQKTSDNKYPTKWYFATNLHVADAINENTLSINLMRLMDSAQIKTTFRLSNLDENIYNFGFRSKEHGKNLLNHGLKKIFDGRDFLKTKPAEYLINSQKEKYKDVGNFTDFAVFELDFEKLELVNVWKNFLGENNGLVTKYNNYNPQELAKVITSNYANNKNNQIKFLSKSYLSDYSKIDVPLKYRQEDAKTWFKKYDELFALGWPNSTEDFFFKAYVDDDQLKYRTRDNFSLWTNSDYRFFNNLTQQEGGQPAFPPERTERGNYLSYAIGFRSFIQKPGIVDAFIAVPQIGNNLYTSSDNKKYINMGLEYLPKHFAPAGGASGTSVRNQKNELVAIYHAKYDSSKTGLAAAFRSEGYDYQGLYGNYNLPQYDLIYGGGKDQTEKKSYREAMKDIYQNNNIKTALFPDGFDKIPDEFKFNNN | failed
MGIIAWIVFGFVIGLIARAVVPGKQSLGFVMTTLLGIAGSLIGGLVASAFAGTSGTTFQTAGFIGSLVGAIVLLVIAGMVTTPRRRTV | failed
MTDARTTVVVITHNRCAEVLRTLDRLAELPERPAVIVTDNGSTDGTAAAVARHHPGVRLLRSGRNLGAVGRNLAVRQVTTPYVAFCDDDSWWAPGSLSGAADLLDRYPAVGSVTARILVEPEGTEDPIVEELRDSPVPRPDWLPGPALGSFLAAATVLRTDAFRAAGGFHPRLWLGGEEELLAADLAANGWWLTYAGQLTIHHHPSGVRDSTVRRSHGIRNTLWFTWLRRPVGPALRRTLHLARTVPRDTASLRAFAEATAALPWVLRERRVLPPEVEARLRALEPAQRDSTARSYTGLEHHHHHH | failed
MMIMKRLLFLVSVCSLCMVGNSQNYQPEKHAVVKSDRGDGRLLSTYAIVHEMLKDTHPQYAYRSGMSAQEFTQWQDGVRAAMVEIMKFPEIKRQPSPVCVKTEKKEGYILEKWEFYPFPKSVSTFLVLKPEHLKGAVPGVLCIPGSGRTKEGLVGEPGICDKLTEDYNNPKVSMALNMVKEGYVAVAVDNAAAGEASDLECYDKGWNYDYDVVSRFLLELGWSWLGYTSYLDMQVLNWMKAQSYIRKDRIVISGFSLGTEPMMVLGVLDKDIYAFVYNDFLCQTQERAVVMTKPDKENRRPFPNSIRHLIPGYWRYFNFPDVVASLAPRPIIFTEGGLDRDFRLVQSAYAASGKPENAEFHHYPKFADKAVRKDVEHLDEGLDSKTYFEAVNVDPPSHYFKNELVIPWLRKVLK | failed
HDLALSGNAYKVRLFLSLIGREATLRPVDFLNREHKTQAFLRMNPRGQIPVLEDGELQLGDSHAILVYLARRHADPVWYPLDPVSQGRIAYWLSYSANEVQNGPASARLITRFNLPLDREQTHQRGLEVLRLVDRHLAEHRWLAQGEQPSIADVALYPYLALAPEGGLALDHYPALNAWIARIRALPGYIPMPGL | not failed
MIPLSESFESGIPAIWKTIDADGDGYNWMHLTNFTGQSGLCVSSASYIGGVGALTPDNYLITPELKLPTDALVEIIYWVCTQDLTAPSEHYAVYSSSTGNNAADFVNLLYEETLTAKRIQSPELIRGNRTQGVWYQRKVVLPNDTKYVAFRHFNSTDNFWLNLDEVSILYTPLPRRA | not failed
MDDLNPLAGTAHLLEEVDKKLMVLLRDGRTLIGYLRSVDQFANLVLQRTIERIHVGNEYGDIPRGVFIIRGENVVLLGEIDREKEQKLPLKEISVDEILDAQRREQEQRQEKHRLVSKALKERGLAVDANIINEDFC | failed
MSLDFWLYKQAQQNGHHIAITDGQESYTYQNLYCEASLLAKRLKAYQQSRVGLYIDNSIQSIILIHACWLANIEIAMINTRLTPNEMTNQMRSIDVQLIFCTLPLELRGFQIVSLDDIEFAGRDITTNGLLDNTMGIQYDTSNETVVPKESPSNILNTSFNLDDIASIMFTSGTTGPQKAVPQTFRNHYASAIGCKESLGFDRDTNWLSVLPIYHISGLSVLLRAVIEGFTVRIVDKFNAEQILTMIKNERITHISLVPQTLNWLMQQGLHEPYNLQKILLGGAKLSATMIETALQYNLPIYNSFGMTETCSQFLTATPEMLHARPDTVGMPSANVDVKIKNPNKEGHGELMIKGANVMNGYLYPTDLTGTFENGYFNTGDIAEIDHEGYVMIYDRRKDLIISGGENIYPYQIETVAKQFPGISDAVCVGHPDDTWGQVPKLYFVSESDISKAQLIAYLSKHLAKYKVPKHFEKVDTLPYTSTGKLQRNKLYREGHHHHHH | not failed
MSIEIRKLSIEDLETLIEVARESWKWTYAGIYSEEYIESWIREKYSKEKLLNEIVRSQSNLDILFLGAFADSTLIGFIELKIIANKAELLRLYLKPEYTHKKIGKTLLLEAEKIMKKKGILECRLYVHRQNSVGFSFYYKNGFKVEDTDGSDFIMEKKY | not failed
MELTILILLLPFLSFLILGIGGKWMSHRTAGAIGTLILGAVVVLSYVTAFQYFSAPRLEDGTFATLIPYNFTWLPFTETLRFDLGILLDPISVMMLIVISTVSLMVHIYSFGYMKGETGFQRYYAFLSLFTMSMLGLVVATNIFQMYLFWELVGVSSYLLIGFYYTKPAAIAASKKAFIVTRFADLGFLIGILIYGYYGGTFGFTPDTVSLISGGASMLPLALGLMFIGGAGKSAMFPLHIWLPDAMEGPTPVSALIHAATMVVAGVYLVARMFPLFIAYAPDTLHMIAWVGAFTAFYAASVACVQSDIKRVLAFSTISQIGFMMVALGVCTSMDPHHGGLGYMASMFHLFTHAMFKALLFLGAGSIIHAVHSNEMSAMGGLRKYMPITHWTFLIACLAIAGIPPFSGFFSKDEILAACFQYSPAMGWVMTVIAAMTAFYMFRLYYGIFWGAEPPRASSHSDHSTPHGNLEAAPCRPHESPLAMTFPLIFLAVVTCLAGFIPFGHFISSNGESYSIHLDLSVAVTSVVIAIISIGIATWMYKNAKQPVANALAKRFNGLWTAAYHRFYIDDIYQFITHKIIFRCISTPIAWFDRHVVDGFFNFLAWATNTTSDEIRGLQSGQVQQYAYVFLCGALALILLLVL | failed
